Columns and labels:
[1] = target: SARS-CoV-2 spike (S) protein, WA1 (SARS-CoV-2) (UniProt P0DTC2); experiment: cell-based or functional assay
[2] = target: SARS-CoV-2 WA1 spike (S) protein (SARS-CoV-2) (UniProt P0DTC2); experiment: cell-based or functional assay

## ADG20 (antibody)
[1]
  neutralization IC50: 47 pM
  neutralization IC80: 197 pM

## AZD3152 (antibody)
[1]
  IC50, pseudovirus neutralization: 1080 pM
  IC80, pseudovirus neutralization: 2200 pM
[2]
  pseudovirus neutralization IC50: 0.161 µg/mL
